Experimental data reported in US20210130436A1 (published 2021).

Key:
human CD28 [1] = target: T1, human CD28 (human, UniProt P10747 19-220); experiment: flow cytometry on Jurkat cells (CD28); vs CD80 WT IgV-Fc
T1 construct: Endogenous CD28 on Jurkat/IL2 reporter cells

human PD-L1 [2] = target: T2, human PD-L1 (human, UniProt Q9NZQ7 19-290); experiment: cell-based or functional assay
T2 sequence (Q9NZQ7 19-290): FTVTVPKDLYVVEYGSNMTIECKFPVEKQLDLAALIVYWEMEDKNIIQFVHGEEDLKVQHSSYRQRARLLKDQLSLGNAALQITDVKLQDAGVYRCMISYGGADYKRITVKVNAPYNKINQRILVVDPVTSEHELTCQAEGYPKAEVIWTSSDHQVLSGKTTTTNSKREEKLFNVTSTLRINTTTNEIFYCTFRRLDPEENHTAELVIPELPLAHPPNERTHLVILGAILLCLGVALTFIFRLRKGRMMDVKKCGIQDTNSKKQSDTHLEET

human PD-L1 [3] = target: T2, human PD-L1; experiment: flow cytometry on CHO cells stably expressing PD-L1
human PD-L1 [4] = target: T2, human PD-L1; experiment: flow cytometry on CHO cells stably expressing PD-L1; vs CD80 WT IgV-Fc
human CTLA-4 [5] = target: T3, human CTLA-4 (human, UniProt P16410 36-223); experiment: flow cytometry on CHO cells stably expressing CTLA4
T3 construct: also called huCTLA4

human CTLA-4 [6] = target: T3, human CTLA-4; experiment: flow cytometry on CHO cells stably expressing CTLA4; vs CD80 WT IgV-Fc
human PD-L1 [7] = target: T2, human PD-L1; experiment: flow cytometry; PD-L1 MFI over CD28 MFI
human CD28 [8] = target: T1, human CD28; experiment: flow cytometry on Jurkat cells (CD28)
[9] = target: T4, human CTLA-4 (CTLA4), expressed on CHO cells (human, UniProt P16410 36-223); experiment: flow cytometry on CHO cells stably expressing human CTLA-4; PE anti-human Fc
T4 construct: Full-length surface expression construct transduced by lentivirus into CHO cells; also called huCTLA4

[10] = target: T5, human PD-L1, expressed on CHO cells (human, UniProt Q9NZQ7 19-290); experiment: flow cytometry on CHO cells stably expressing human PD-L1; PE anti-human Fc
T5 construct: Full-length surface expression construct transduced by lentivirus into CHO cells; also called huPD-L1; CD274

[11] = target: T4, human CTLA-4 (CTLA4), expressed on CHO …; experiment: flow cytometry on CHO cells stably expressing human CTLA-4; MFI relative to WT CD80 ECD-Fc (R&D)
[12] = target: T5, human PD-L1, expressed on CHO cells; experiment: flow cytometry; ratio of MFI on PD-L1 CHO cells to MFI on Jurkat (CD28) cells
[13] = target: T5, human PD-L1, expressed on CHO cells; experiment: flow cytometry on CHO cells stably expressing human PD-L1; MFI relative to WT CD80 ECD-Fc (R&D)
[14] = target: T6, CD28, endogenously expressed on Jurkat/IL2 reporter cells (human, UniProt P10747 19-220); experiment: flow cytometry on Jurkat/IL2 reporter cells (endogenous CD28); PE anti-human Fc
T6 construct: Endogenous CD28 of Jurkat/IL2 reporter cells

human CTLA4 = target: T7, human CTLA4 (human, UniProt P16410 36-223); experiment: flow cytometry, CHO cells expressing huCTLA4
T7 construct: also called huCTLA4

human CD28 [15] = target: human CD28 (human, UniProt P10747 19-220); experiment: flow cytometry, Jurkat/IL2 reporter cells (endogenous CD28)
human PD-L1 [16] = target: T8, human PD-L1 (human, UniProt Q9NZQ7 19-290); experiment: flow cytometry, CHO cells expressing huPD-L1
T8 construct: also called huPD-L1; CD274
T8 sequence (Q9NZQ7 19-290): as above

T3 sequence (P16410 36-223): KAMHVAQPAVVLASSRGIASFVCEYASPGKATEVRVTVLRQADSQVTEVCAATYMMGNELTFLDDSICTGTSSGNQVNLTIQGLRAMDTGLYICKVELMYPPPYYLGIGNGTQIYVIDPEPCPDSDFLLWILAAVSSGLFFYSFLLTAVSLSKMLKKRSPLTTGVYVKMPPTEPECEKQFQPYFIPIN
T5 sequence (Q9NZQ7 19-290): as the sequence (Q9NZQ7 19-290) above
T4 sequence (P16410 36-223): as the sequence (P16410 36-223) above
T7 sequence (P16410 36-223): as above

Binder	Fold change to WT CD80 (human CD28 [1]) [fold]	Fold Increase over WT CD80-IgV-Fc, Jurkat/IL2 + CHO/OKT3/PD-L1 Reporter Assay (human PD-L1 [2]) [fold]	RLU, Jurkat/IL2 + CHO/OKT3/PD-L1 Reporter Assay, CD80 Conc 5.0 nM (human PD-L1 [2]) [RLU]	MFI at 33.3 nM (human PD-L1 [3]) [MFI]	Fold change to WT CD80 (human PD-L1 [4]) [fold]	MFI at 33.3 nM (human CTLA-4 [5]) [MFI]	Fold change to WT CD80 (human CTLA-4 [6]) [fold]	Ratio of PDL1:CD28 (human PD-L1 [7]) [ratio]	MFI at 33.3 nM (human CD28 [8]) [MFI]	other results
CD80 E35D/M47V/N48K/V68M/K89N IgV-Fc, delta linker (Fc fusion, Fused directly to the Fc with no additional linker; also called E35D/M47V/N48K/V68M/K89N delta) VIHVTKEVKEVATLSCGHNVSVEELAQTRIYWQKDKKMVLTMMSGDVKIWPEYKNRTIFDITNNLSIMILALRPSDEGTYECVVLKYENDAFKREHLAEVTLSVKTHTCPPCPAPEAEGAPSVFLFPPKPKDTLMISRTPEVTCVVVDVSHEDPEVKFNWYVDGVEVHNAKTKPREEQYNSTYRVVSVLTVLHQDWLNGKEYKCKVSNKALPAPIEKTISKAKGQPREPQVYTLPPSREEMTKNQVSLTCLVKGFYPSDIAVEWESNGQPENNYKTTPPVLDSDGSFFLYSKLTVDKSRWQQGNVFSCSVMHEALHNHYTQKSLSLSPG	83.7	2.63	1030	20400	439	3090	2.6	4	4680	
CD80 E35D/D46V/M47L/V68M/L85Q/E88D IgV-Fc, delta linker (Fc fusion, Fused directly to the Fc with no additional linker; also called E35D/D46V/M47L/V68M/L85Q/E88D delta) VIHVTKEVKEVATLSCGHNVSVEELAQTRIYWQKDKKMVLTMMSGVLNIWPEYKNRTIFDITNNLSIMILALRPSDEGTYECVVQKYDKDAFKREHLAEVTLSVKTHTCPPCPAPEAEGAPSVFLFPPKPKDTLMISRTPEVTCVVVDVSHEDPEVKFNWYVDGVEVHNAKTKPREEQYNSTYRVVSVLTVLHQDWLNGKEYKCKVSNKALPAPIEKTISKAKGQPREPQVYTLPPSREEMTKNQVSLTCLVKGFYPSDIAVEWESNGQPENNYKTTPPVLDSDGSFFLYSKLTVDKSRWQQGNVFSCSVMHEALHNHYTQKSLSLSPG	74.7	2.77	1080	22500	484	12200	10.2	5	4170	
CD80 E35D/M47V/N48K/V68M/K89N IgV-Fc, EAAAK linker (Fc fusion, not shown: a dimerising Fc or GST) VIHVTKEVKEVATLSCGHNVSVEELAQTRIYWQKDKKMVLTMMSGDVKIWPEYKNRTIFDITNNLSIMILALRPSDEGTYECVVLKYENDAFKREHLAEVTLSVKADEAAAK	47.1	4.38	1710	22900	491	27500	23	9	2630	
CD80 E35D/D46V/M47L/V68M/L85Q/E88D IgV-Fc, EAAAK linker (Fc fusion, not shown: a dimerising Fc or GST) VIHVTKEVKEVATLSCGHNVSVEELAQTRIYWQKDKKMVLTMMSGVLNIWPEYKNRTIFDITNNLSIMILALRPSDEGTYECVVQKYDKDAFKREHLAEVTLSVKADEAAAK	10.1	3.75	1460	24800	533	29000	24.2	44	563	
CD80 E35D/D46V/M47L/V68M/L85Q/E88D IgV-Fc, (EAAAK)3 linker (Fc fusion, not shown: a dimerising Fc or GST) VIHVTKEVKEVATLSCGHNVSVEELAQTRIYWQKDKKMVLTMMSGVLNIWPEYKNRTIFDITNNLSIMILALRPSDEGTYECVVQKYDKDAFKREHLAEVTLSVKADEAAAKEAAAKEAAAK	3.5	5.25	2050	25500	546	32000	26.8	129	197	
CD80 E35D/D46V/M47L/V68M/L85Q/E88D IgV-Fc, GS(G4S)5 linker (Fc fusion, not shown: a dimerising Fc or GST) VIHVTKEVKEVATLSCGHNVSVEELAQTRIYWQKDKKMVLTMMSGVLNIWPEYKNRTIFDITNNLSIMILALRPSDEGTYECVVQKYDKDAFKREHLAEVTLSVKADGSGGGGSGGGGSGGGGSGGGGSGGGGS	2.6	5.26	2050	22400	481	26600	22.2	157	143	
wild-type CD80 IgV-Fc (inert) with GSG4S linker, Example 16 (Fc fusion, also called CD80 WT IgV-Fc) VIHVTKEVKEVATLSCGHNVSVEELAQTRIYWQKEKKMVLTMMSGDMNIWPEYKNRTIFDITNNLSIVILALRPSDEGTYECVVLKYEKDAFKREHLAEVTLSVKADGSGGGGSEPKSSDKTHTCPPCPAPEAEGAPSVFLFPPKPKDTLMISRTPEVTCVVVDVSHEDPEVKFNWYVDGVEVHNAKTKPREEQYNSTYRVVSVLTVLHQDWLNGKEYKCKVSNKALPAPIEKTISKAKGQPREPQVYTLPPSREEMTKNQVSLTCLVKGFYPSDIAVEWESNGQPENNYKTTPPVLDSDGSFFLYSKLTVDKSRWQQGNVFSCSVMHEALHNHYTQKSLSLSPG	1	1	390	47	1	1200	1	1	56	
variant CD80 IgV-Fc E35D/M42V/M47V/E52D/L85Q (Fc fusion, not shown: small tags and cut ends; a dimerising Fc or GST, Fc fusion of the variant IgV) VIHVTKEVKEVATLSCGHNVSVEELAQTRIYWQKDKKMVLTVMSGDVNIWPDYKNRTIFDITNNLSIVILALRPSDEGTYECVVQKYEKDAFKREHLAEVTLSVKAD										MFI at 33.3 nM [9]: 226000 MFI; MFI at 33.3 nM [10]: 11900 MFI; Fold change to WT CD80 [11]: 1.44 fold; Ratio of PDL1:CD28 [12]: 9 ratio; Fold change to WT CD80 [13]: 1 fold
WT CD80 ECD-Fc (R&D) (Fc fusion, Bought from R&D Systems; also called unmodified CD80-ECD-Fc fusion molecule (R&D Systems, USA); wild-type CD80-ECD-Fc; not shown: Fc and any linker of the bought R&D Systems protein are not described) VIHVTKEVKEVATLSCGHNVSVEELAQTRIYWQKEKKMVLTMMSGDMNIWPEYKNRTIFDITNNLSIVILALRPSDEGTYECVVLKYEKDAFKREHLAEVTLSVKADFPTPSISDFEIPTSNIRRIICSTSGGFPEPHLSWLENGEELNAINTTVSQDPETELYAVSSKLDFNMTTNHSFMCLIKYGHLRVNQTFNWNTTKQEHFPDN										MFI at 33.3 nM [14]: 18000 MFI
variant CD80 IgV-Fc H18Y/A26E/A71G/D90G (Fc fusion, not shown: small tags and cut ends; a dimerising Fc or GST) VIHVTKEVKEVATLSCGYNVSVEELEQTRIYWQKEKKMVLTMMSGDMNIWPEYKNRTIFDITNNLSIVILGLRPSDEGTYECVVLKYEKGAFKREHLAEVTLSVKAD										MFI at 33.3 nM (human CTLA4): 19900 MFI; MFI at 33.3 nM (human CD28 [15]): 2000 MFI
variant CD80 IgV-Fc H18Y/A26E/E35D/D90G (Fc fusion, not shown: small tags and cut ends; a dimerising Fc or GST) VIHVTKEVKEVATLSCGYNVSVEELEQTRIYWQKDKKMVLTMMSGDMNIWPEYKNRTIFDITNNLSIVILALRPSDEGTYECVVLKYEKGAFKREHLAEVTLSVKAD										MFI at 33.3 nM (human PD-L1 [16]): 10000 MFI
variant CD80 IgV-Fc M47L/V68M/A71G/D90G (Fc fusion, not shown: small tags and cut ends; a dimerising Fc or GST) VIHVTKEVKEVATLSCGHNVSVEELAQTRIYWQKEKKMVLTMMSGDLNIWPEYKNRTIFDITNNLSIMILGLRPSDEGTYECVVLKYEKGAFKREHLAEVTLSVKAD										MFI at 33.3 nM (human CTLA4): 17400 MFI; MFI at 33.3 nM (human PD-L1 [16]): 31100 MFI; MFI at 33.3 nM (human CD28 [15]): 3610 MFI
